Measurements taken from the DeepSol protein solubility set.

Assay: soluble on expression in E. coli; label from the status in PepcDB or PDB records

Sequence | soluble on expression in E. coli
MSLSKLGYIPNQAARTLITNKTLTIGLIQKSSAPEIRQNPFNSDVLNGINQACNVRGYSTRMTVSENSGDLYHEVKTMIQSKSVDGFILLYSLKDDPIEHLLNEFKVPYLIVGKSLNYENIIHIDNDNIDAAYQLTQYLYHLGHRHILFLQESGHYAVTEDRSVGFKQYCDDVKISNDCVVIKSMNDLRDFIKQYCIDASHMPSVIITSDVMLNMQLLNVLYEYQLRIPEDIQTATFNTSFLTENATPSQTSVNINPDVLGFTAGNTIIDVLRNETISFREKLISTQIVERVSTTKIEGHHHHHH | soluble
MSLSKNNETLEALSKEYRDTIPADLRKTNTFDWYLQQLYDEPKIARNAHQRVADMFDYYGKSYDEEAGVVEYELASEDPLHDGENTFYGRVIHEAMHEFVNKVKSGARGLGPEKRIKLLLGPVGSGKSDFDRQVRRYFEDYTSRDEGRMYTFRWTNLCDVIHDQDPADDVVRSPMNQDPLVLLPQAQRDKVIEDINAELDAPYTIRNEQSLDPASEFYMDRLLAEYDDDLQAVLENHVEIVRFVADENQRRGIETFEPKDKKNQDETELTGDVNYSKIAIYGESDPRAFDYSGAFCNANRGIFSGEELLKLQREFLYDFLHASQEQTIKPKNNPRIDIDQVIVGRTNMPEYRDKKGDEKMEAFNDRTKRIDFPYVLQYEAEANIYQKMLRNADLPDIQVEPHTLEMAGLFGVLTRIEEPDNESIDLVQKAKAYNGEIDEADDVDVKKLREEAEKMADIGEGMDGVSPRFIGDEIAEAIMDSMHRSRDFLSPLTTFNHLEGNLENHGSIDEESFSKYYRFLELVREEYKERAIEDVRHALAYDMDEIQRQGEKYMDHVMAYIDDATVEDELTGREQEPDEQFLRSVEEKLNLPEDRKDDFRQEVSNWVSRRAREGDTFNPQDNDRLRRALERKLWEDKKHNINFSALVSSSEMDDEERNQWVDALIEQGYSEEGAKEVLEFAGAEVAKSEMEEEGHHHHHH | soluble
MSLSKVYLVPTPIGNLGDITLRALEVLKNVDLIAAEDTRQTLKLLNHFEIKKPLISYHKHNEQGKGEEILRRVKEGTSVAIVSDAGTPGISDPGSVVVEKCIEEGIEFEVLPGATAFTTALIYSGLDTTKFMFKGFFPRENKDKRSFIEDIKDRTETIIIYESPYRILDTIDTLKEGLGNRKVAICRELTKLHEEIFRGTLEEAKIHFEENAPKGEFVCVISGKTDKEIEEENTSKWISMSIEEHIIHYIDNEGMKKKDAIKQVAKDRGVAKSEIYKFSLDEGHHHHHH | soluble
MSLSLLLSILCMTQAKDRIVERPPFLAQSSSSIEIDKIVMSDTVTTVYIKAFYRPKYWIKIATGSVLKDNNGNLYPVRKGIGITLDKEFWMPESGEAEFQLTFPPIPQNVTCLDFSEGDFEGAYKIWGIQLDKKTFSKFKLPKDVTVTKADHKTTLPEPVVKYAKAILKGRILDYQKGMPNKGSLYFQDVIRDEAQEGKIRIQDDGTFYHEMNVFMVTPCMIRFPFGAVSYLLAPGETTSVVINLRENARKQSHLRQAEKPYGKEIYYGGYLAGVQQELADHPMSFSFTEGNSYEEYQQQIKKLNGKTAEEYKAQILARLPEFRKQITQSKGSPAYKEIINTDLELSAALKIIETERNLKLVHIMTNGLEGEKANKYYAETKIDIPQGYYESLQDFTYILSPKACYNSRYPILFDIIRRIGIDDKILKSLSNHTAASYLIQNPKAQMIGVSMRDLNPLNDKQKAELSTMPAAYNDMALAMNNDLLKQIEINKKKTGFTVNETGEVSNEDLFPSIISKFRGHTLLVDFWATWCGPCRSANKQILPMKEELKDKDIIYLYITGETSPLGTWKNMIPDIHGEHFRVTDEQWSYLREKFSIRGVPTYFVIDKEGNITYKQTGFPGVDTMKEQLMKALEKEGHHHHHH | soluble
MSLSLWWKRAKARMTESVTYYQEPAFEKLLPDPDPTFERPYTLCLSLDDLLIHSEWTREHGWRIAKRPGVDYFIRYLSQYYELVLFTTTPYATGEPVMRKLDPFRLILWPLYREATKFEDGEIVKDLSYLNRDLSKVIIIDTKAKHVRNQPDNAIILDPWKGDKDDKNLVNLIPFLEYIHTMQYSDVRKVIKSFDGKDIPTEGHHHHHH | not soluble
MSLSMKKERGVVYTPLKISNYIIDSTISEEDIIKNPFLKIVDPACGCGNIIIPCFIYLRNIYIKNLDKINNINKLELREENINYHIIKNNLFGYDVDLNAIKVLTIDLFCESKCFSSNFLCKDFLLDEIGIKYDIFLSNPPYVGLKSINKEYSAILKTMYPSYKDKADISYCFFEKSILCLKIDGKLGFITSRYFLESQSGEELRRILVEKCSLYKIVDFYGIRPFKKAGIDTVMIFLERGIGDRKSIEIIKPKIMKNNRKDEFYYSLFNGTNEGIDKFYINIKALDSKRWILRKDEEIDIINKIEKNSEGHHHHHH | not soluble
MSLSNDRYSMSFTTGSLFHRESVKLAALYLDLGDWNSVRDKVIAENLLQTRTLNTLKRVCREIISRLRTMNPGELDFLVEGSHQEQAYLLWLAVCRRYRFIADFAVEVLRERYITLKADLTHEDFDSFFNRKSEWHLELDEITPATRSKLRQVLFKILREADLLAANNMINAAMLSPRLSDVIHRGSRRDVSYFPLFESDLKGMAKEGHHHHHH | soluble
MSLSNYISIKGAKVNNLKNIDVNIPRNKLVVITGLSGSGKSSLAFDTLYAEGQRRYVESLSSYARQFLGRMSKPECDFIKGIPPAIAIEQKVNSRNPRSTVGTSTEIYEYLRLLYARVGKTYSPISGQLVKKHSIEDIVNCMLSFPKGTKYTVLTPMMPREGRTLLQQLEMDLKQGFTRIEVNREIVRIEDFLQQTAAEDKKQNIYLLVDRMTADDSKDSISRLTDSAETAMYEGDGNCLLRFYSADGSTQLFSFSTKFETDGIKFEEPNDQMFSFNSPLGACPECEGFGKVIGIDEHLVIPNRALSVYDGAVLCWRGEKMGEWLQEFIHEAPAHDFPIFAPYYELTQEQKDYLWHGPRNKACIDSFFKMLEENQYKIQYRVMLARYRGKTICPVCHGTRLKKEAGYVKVGGKSISQLVDLPIHDLKEFFRTLELDAHDTAIAKRILTEITNRINFLMDVGLGYLTLNRLSNSLSGGESQRINLATSLGSSLVGSLYILDEPSIGLHSRDTDRLIKVLRQLQELGNTVVVVEHDEEIIRAADYIIDIGPQAGRLGGQIVYQGNMNDLQRNEGHHHHHH | soluble
MSLSPTKTRRILFLLPYVADLSVGDFSKGLNPVMQDKQIDVMMTTLDFLQNKTAKELINEFDGLIYYALDTEQHLDLLFELSLKEFPVVILDKKIYELPFPTVLSDNFQGGALAASYLIEQGHSKIAYLFGTQTHPQSVRQRYLGYLEALDKAGLTFHTSLDDKSATLDELLSYITKYEVTAFVCENDVVAIQTMNLLRQHGYHIPEDFSIIGFDDIQAAALVDPPLTTIAQDFEQLGKLAGDALVTWLETKDRPSDSKFPVSFIKRQSTKEGHHHHHH | soluble
MSLSQGALYLVPTPIGNLEDMTFRAIRMLKEADIIAAEDTRNTVKLLNHFEITTRMTSYHQFTKENKEDNIIQRMLDGEVVALVSDAGMPSISDPGYELVQSALNANIPVIPLPGANAALTALIASGLAPQPFYFYGFLPRQNKERTQAIEKLAAREETWILYESPHRLKETLKAIIKITGNDRKIVLCRELTKRFEEFLRGTVEDALNWAMDEEVRGEFCLIIEGNANPPLAEEQLWWQELDIKTHVSTVMEQENVSSKDAIKTVMKARNLPKREVYSAYHEIKEGHHHHHH | soluble
MSLSQNASVGIVMPQKIPFEMPLVLENGKTLPRFDLMIETYGELNAEKNNAVLICHALSGNHHVAGRHSAEDKYTGWWDNMVGPGKPIDTERFFVVGLNNLGGCDGSSGPLSINPETGREYGADFPVVTVKDWVKSQAALADYLGIEQWAAIVGGSLGGMQALQWTISYPERVRHALVIASAPKLSTQNIAFNDVARQAILTDPDFNEGHYRSHNTVPARGLRIARMMGHITYLAEDGLGKKFGRDLRSNGYQYGFGVEFEVESYLRYQGDKFVGRFDANTYLLMTKALDYFDPAADFGDSLTRALQNVKAKFFVASFSTDWRFAPERSHELVKALIAAQKSVQYIEVKSAHGHDAFLMEDEAYMRAVAAYMNNVYKECQQEGHHHHHH | soluble
MSLSRIRKAPAGILGFPVAPFNTQGTLEEEALFQNIEFLLNEGLEAIFIACGSGEFQSLSQKEYEQMVEVAVSAAGGKVPVYTGVGGNLSTALDWAQLSEKKGADGYLILPPYLVHGEQEGLYQYAKTIIESTDLNAILYQRDNAVLSVEQIKRLTECEQLVGVKDGVGNMDLNINLVYTIGDRLGWLNGMPMAEVTMPAYLPIGFHSYSSAISNYIPHISRMFYDALKNGNDELVKELYRHVILPINDIRKQRKGYAVSLIKAGMEIMGLNVRNTARPPVGPVEKDHYQQLEAILKQPADRFPKKEGHHHHHH | soluble
MSLSRTIEDRAAEFAIQPSYHALGGEFVRAPVETLREMLGAFGISLDGPPPDRAPPEMRAPDGYRCFLPEGEMRRWGIAAQLYQLRSERNWGIGDFADLCDLARIGGAAGADFIGLNPLHALFLANPAHTSPFSPSNRRFLNPLYIAVDRVPGYRPEFAPEGLGQLRAPDLVDYPAVAAAKLGALRRLWREGPDDAMGFMRFCAEGGELLRRHALFEAISGQMVADGYGAGWLGWPVEFHDAEGQAVIDFADARGDEVGFHLWLQWIADRQLEEARDACRAAGMKIGLYLDFAVGEVPDGSSTWSDPSLAVPGLRIGASPDWFNAQGQDWGLAPLSPVKLADLRAAPFGALMQDATRRAGALRIDHAMGVWQLFLIPDGMGAPQGTYVRYPIEDMLRALAEASCRNRTIVIGEDLGNVPDGFRELMARMNILSYRILLFERHDHGYIAPEHYPREALVCLSTHDLPTFRGWWRGDDVAIRRDFRLISDEAARQQGDFRWTERRQLLEDLARAGLMAWDEIDRIGPDDPPEALVVAVHRHLARAPSRLFAVRIEDMAGEVAPVNVPSTVDEHPNWRRRLGVPLEALGETALFRGIAGALEAEREGHHHHHH | soluble
MSLSTARLPENAERNRFQDVLPYDDARVELVPTKENNTGYINASHIKVSVSGIEWDYIATQGPLQNTCQDFWQMVWEQGIAIIAMVTAEEEGGREKSFRYWPRLGSRHNTVTYGRFKITTRFRTDSGCYATTGLKMKHLLTGQERTVWHLQYTDWPEHGCPEDLKGFLSYLEEIQSVRRHTNSTSDPQSPNPPLLVHCSAGVGRTGVVILSEIMIACLEHNEVLDIPRVLDMLRQQRMMLVQTLCQYTFVYRVLIQFLKSSRLIEGHHHHHH | not soluble
MSLSTIAIFGSYVLSRKDGAQDVLRDHWVLVEGKKIAAVTRDRPRADEVYDRPGRFVLPGLLNLHNHCFSEAVARSHSEDGTGRKNNQSIVYTVLLPLTKRGADILSAEERMAVARLGILQLLKGGATTVMEPFRNSIPEMFDAAEEMGIRFYGAPYLFSTSDAKAGPDGVVQYSGDDGTADMATWDALYQRWNNRGDGRISLAMSPHATDTCGPDLLKACAARARELGVPITTHMAQSRAEVETIGKRYGGRTPAQYLDWLGLLAPDLMAAHCMFSTDDDLKLMAARGMTVLNCPRVFARAGVTAAFSRFAEHGVRTVVGTDGYNMDLLGELNAASLISKITSQRADVANSPELIEANTAVAADVIKRPDLGRIEPGATADLTVVDLTHPHLQPLFDPRRALIALANRANIDQVMVDGRVLVDGGRYLGADEAAITAAGSAAIGKIWDLPEAQAAFNGEGHHHHHH | soluble
